Data taken from patent publication US20260217835A1 (published 2026).
Numbering of substitutions follows the chain as printed. Names and notes keep the numbering of the source.

B1: IgG2 full-length heavy chain with Q347R/K360E/D399V/F405T/K409W (SEQ ID NO: 89) with light chain SEQ ID NO: 61 (antibody)
heavy: QVQLQESGPGLVRPSQTLSLTCTVSGYSITSDHAWSWVRQPPGRGLEWIGYISYSGITTYNPSLKSRVTMLRDTSKNQFSLRLSSVTAADTAVYYCARSLARTTAMDYWGQGSLVTVSSASTKGPSVFPLAPCSRSTSESTAALGCLVKDYFPEPVTVSWNSGALTSGVHTFPAVLQSSGLYSLSSVVTVPSSNFGTQTYTCNVDHKPSNTKVDKTVERKCCVECPPCPAPPVAGPSVFLFPPKPKDTLMISRTPEVTCVVVDVSHEDPEVQFNWYVDGVEVHNAKTKPREEQFNSTFRVVSVLTVVHQDWLNGKEYKCKVSNKGLPAPIEKTISKTKGQPREPRVYTLPPSREEMTENQVSLTCLVKGFYPSDIAVEWESNGQPENNYKTTPPMLVSDGSFTLYSWLTVDKSRWQQGNVFSCSVMHEALHNHYTQKSLSLSP
light: not shown
notes: also called Sample No. 210 full-length heavy chain
B2: IgG2 full-length heavy chain with T366W/L368A/Y407V (SEQ ID NO: 88) with light chain SEQ ID NO: 61 (antibody)
heavy: B1 heavy with R345Q, E358K, T364W, L366A, V397D, T403F, Y405V, W407K
light: not shown
B3: IgG2 full-length heavy chain with T394W/F405A (SEQ ID NO: 87) with light chain SEQ ID NO: 61 (antibody)
heavy: B1 heavy with R345Q, E358K, T392W, V397D, T403A, W407K
light: not shown
notes: also called Sample No. 208 full-length heavy chain
B4: IgG2 full-length heavy chain with K392L/T394W/F405A/Y407V (SEQ ID NO: 90) with light chain SEQ ID NO: 61 (antibody)
heavy: B1 heavy with R345Q, E358K, K390L, T392W, V397D, T403A, Y405V, W407K
light: not shown
B5: IgG4 full-length heavy chain with T366W/L368A/Y407V (SEQ ID NO: 94) with light chain SEQ ID NO: 61 (antibody)
heavy: QVQLQESGPGLVRPSQTLSLTCTVSGYSITSDHAWSWVRQPPGRGLEWIGYISYSGITTYNPSLKSRVTMLRDTSKNQFSLRLSSVTAADTAVYYCARSLARTTAMDYWGQGSLVTVSSASTKGPSVFPLAPCSRSTSESTAALGCLVKDYFPEPVTVSWNSGALTSGVHTFPAVLQSSGLYSLSSVVTVPSSSLGTKTYTCNVDHKPSNTKVDKRVESKYGPPCPPCPAPEFLGGPSVFLFPPKPKDTLMISRTPEVTCVVVDVSQEDPEVQFNWYVDGVEVHNAKTKPREEQFNSTYRVVSVLTVLHQDWLNGKEYKCKVSNKGLPSSIEKTISKAKGQPREPQVYTLPPSQEEMTKNQVSLWCAVKGFYPSDIAVEWESNGQPENNYKTTPPVLDSDGSFFLVSRLTVDKSRWQEGNVFSCSVMHEALHNHYTQKSLSLSL
light: not shown
B6: IgG4 full-length heavy chain with T394W/F405A (SEQ ID NO: 93) with light chain SEQ ID NO: 61 (antibody)
heavy: B5 heavy with W365T, A367L, T393W, F404A, V406Y
light: not shown
B7: IgG2 full-length heavy chain E345R/Q347R/K360D/T366V/D399M/Y407A/K409V (SEQ ID NO: 100) with light chain SEQ ID NO: 61 (antibody)
heavy: B1 heavy with E343R, E358D, T364V, V397M, T403F, Y405A, W407V
light: not shown
notes: also called Sample No. 234
B8: IgG2 full-length heavy chain Q347E/S354Y/T366Y/Y407T (SEQ ID NO: 99) with light chain SEQ ID NO: 61 (antibody)
heavy: B1 heavy with R345E, S352Y, E358K, T364Y, V397D, T403F, Y405T, W407K
light: not shown
notes: also called Sample No. 233
B9: IgG4 full-length heavy chain K392D/D399K/R409D (SEQ ID NO: 97) with light chain SEQ ID NO: 61 (antibody)
heavy: B5 heavy with W365T, A367L, K391D, D398K, V406Y, R408D
light: not shown

Biological target: the molecule itself
Assay: SEC peak area ratio after coexpression of full-length heavy chain, light chain and Fc fragment

Row | Binder | Homo full-length heavy chain (%)
1 | B1 | 80.4
2 | B2 | 80
3 | B3 | 80.8
4 | B4 | 78.5
5 | B5 | 83
6 | B6 | 82

These binders were tested against T1, IgG2 Fc fragment without modification (SEQ ID NO: 103) (Homo sapiens (Human), UniProt P01859 99-324 = IgG part) (assay: co-expression of full-length heavy chain, light chain and Fc fragment in Expi293F, affinity purification, SEC peak area ratio;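 note: purified antibodies analysed by size exclusion chromatography with UV detection at 215 nm, each species given as share of total chromatogram peak area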).
T1 construct: Fc fragment co-expressed with a full-length heavy chain and the light chain; the associating unit is one Fc chain; also called WT-IgG2 Fc fragment

Row | Heteromultimer (%) | Binder
7 | 0 | B7
8 | 0 | B8
9 | 0 | B9

Biological target: the molecule itself
Assay: as above

Row | Binder | Homo full-length heavy chain (%)
10 | B7 | 76.1
11 | B8 | 76.3
12 | B9 | 82.5
